# Test results reported in the nanobody polyreactivity screen of Harvey et al. (2022).
# Experiment: yeast display, Sf9 membrane polyspecificity reagent, FACS + sequencing; frameworks hold sequencing errors
# Procedure, shortened: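 Polyreactivity labels are assigned by the sorting gate from which each nanobody was recovered. The gates were low and high (top ~1%), set on anti-HA fluorescence for expression and streptavidin fluorescence for reagent binding. Before sorting, galactose-induced (36–48 hours) yeast display cells were stained for 1 hour at 4 °C with 10% biotinylated, detergent-solubilized Sf9 membrane reagent.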
row,Sequence,polyreactivity (PSR sort gate)
1,QVQLVESGGGLVQAGGSLRLSCAAYGTIFFSYSMGWYRQAPGKERELVADIRSSDDDTYYADSVKGRFTISRDNAKNTGYLQMNSMKPEDTAVYYCNADFGYWWDGRRYDYWGQGTQVTVSS,low polyreactivity
2,QVQLVESGGGLVQAGGSLRLSCAAYGYTFDSYTIGWYRQAPGKERELVAAITRSGSSTYYADSVKGRFTISRDNAKNTVYLQMNSLKPDDTAVYSCAAGWRRADGIEYWYGYWGQGTQVTVSS,high polyreactivity
3,QVQLVESGGGLVQAGGSLRLSCADSARIFSFNTMGWYRQAPGKETELVAAISYRGRTYYADSVKGRFTISRDNAKKTVYLQMNSLKPEDTAVYYCIAVYGYWYGSWGQGTQVTVSS,high polyreactivity
4,QVQLVESGGGLVQAGGSLRLSCADSGFIFATNAMGWYRQAPGKERDFVAAITSGGSTYYADSVKGRFTISRDNAKNTVYLQMNSLKPEDTAVYYCNARTYSRVTRQTYRYRPYDYWGQGTQVSVSS,high polyreactivity
5,QVQLVESGGGLVQAGGSLRLSCADSGFIFGYYAKGWYRQAPGKERELVADISRGGNTNYADSVKGRFTISRDNAKNTVYLQMNSLKPEDTAVYYCARYRRGKMDYCGQGTQVTVSS,high polyreactivity
6,QVQLVESGGGLVQAGGSLRLSCADSGFIFTAYAMGWYRQAPGKERELVAAISRSGGRTYYADSVKGRFTISRDNAKNTVYLQMNSLKPEDTAVYYCNADFHSGGGYWGQGTQVTLSS,high polyreactivity
7,QVQLVESGGGLVQAGGSLRLSCADSGFIFTVNAMGWYRQAPGKERELVAAITSGGNTYYADSVKGRFTISRDNAKNTVYLQMNSLKPEDAAVYYCNAVFYTWSPYGTTVRSYGYWGQGTQVTVSS,high polyreactivity
8,QVQLVESGGGLVQAGGSLRLSCADSGFSIWWYDMGWYRQAPGKERELVAAITADGGDTYYADSVKGRFTISRDYANHTDYLQMNSLKPEDTAVYYCAAEYDVYGYYYWGQGTQVTVSS,high polyreactivity
9,QVQLVESGGGLVQAGGSLRLSCADSGFTFLSNVMGWYRQAPGKERELDAAINYSGDGTYYADSVKGRFTISRDNAKNTVYLQMNSLKPEDSAVYYCAADVEYYRDVPPQVYVSDDYWGQGTQVTVSS,low polyreactivity
10,QVQLVESGGGLVQAGGSLRLSCADSGFTFSWYTMGWYRQAPGKERELVASITVSGGSTYYADSVKGRFTISRDNAKNTVYLQMNSLKPEDTAVYYCNAQDPFTYYSSSPTYDYWGQGTQVTVSS,low polyreactivity
11,QVQLVESGGGLVQAGGSLRLSCADSGFTFTYYDMGWYRQAPGKERELVAAISSGGSTNYADSVKGRFTISRDNAKNTVYLQMNSLKPEDTAVYYCAASITHYWYGYWGQGTQVTVSS,high polyreactivity
12,QVQLVESGGGLVQAGGSLRLSCADSGGIFDWNDMGWYRHEPGKESELVAAITSGGVTYYADSVKGRFTISRDNAKNTVYLQMNSLIPDDTSVFYCATGYWGLWYGYDSWGQGTQVTVSS,low polyreactivity
13,QVQLVESGGGLVQAGGSLRLSCADSGGIFNTYAMGWYRQAPGKEREFVAAISRRGGGTYYADSVKGRFTISRDNAKNTVYLQMNSLKPEDTAVYYCAAKRFHEHGYWGQGTQVTVSS,high polyreactivity
14,QVQLVESGGGLVQAGGSLRLSCADSGGILFNYDMGWYRPAPGKERELVAAISRRGGTTYYADSVKGRFTISRDNAKNTVYLQMNSLKPEDTAVYYCAAYIYYSYYARVGYGDGNGYDYWGQGTQVTVSS,high polyreactivity
15,QVQLVESGGGLVQAGGSLRLSCADSGITFDANTMGWYRQAPGKERELVAVITDTGSTNYADSVKGRFTISRDNAKNTVYLQMNSLKPEDTAVYYCNADAEPSSGTSANNDYWGQGTQVTVSS,low polyreactivity
16,QVQLVESGGGLVQAGGSLRLSCADSGITLQSYAMGWYRQAPGKERELVAAITSGSSTHYADSVKGRFTISRYNAKYTVYLQMYSLKPEDTAVYYCAADRVYFGDLFVVYYFIQYDFWGQGTQVTVSS,low polyreactivity
17,QVQLVESGGGLVQAGGSLRLSCADSGLIFTANDRGWYRQAPGKERELVADISKSGSSTYYADSVKGRFTISRDNAKNTVYLQMNSLKPEDTAVYYCNADYLTYFTTFDYWGQGTQVTVSS,low polyreactivity
